Columns and labels:
[1] = SEC; Superdex 75 Increase 10/300 GL, ~2 mg ml^−1 (76 μM) protein loaded via 100 μl loop, 0.8 ml min^−1, 150 mM NaCl, 20 mM HEPES pH 7.2; monomer and dimer percentages from integrated peak areas; dimer to monomers
[2] = target: StayGold (Cytaeis uchidae (parent GFP)); test: as above

Substance | percent dimer (SEC peak areas) [1] | stoichiometry N [2] | percent monomer (SEC peak areas) [1]
StayGold | the original StayGold is ~98% dimer | 2 | 
mStayGold (StayGold E138D) |  |  | the E138D mutant is more than 99% monomer
